Biological target: T1, human CD39 (vascular CD39, NTPDase1, ENTPD1) expressed at the cell surface (human, UniProt P49961 1-510)
T1 construct: also called huCD39; CHO-huCD39
T1 sequence: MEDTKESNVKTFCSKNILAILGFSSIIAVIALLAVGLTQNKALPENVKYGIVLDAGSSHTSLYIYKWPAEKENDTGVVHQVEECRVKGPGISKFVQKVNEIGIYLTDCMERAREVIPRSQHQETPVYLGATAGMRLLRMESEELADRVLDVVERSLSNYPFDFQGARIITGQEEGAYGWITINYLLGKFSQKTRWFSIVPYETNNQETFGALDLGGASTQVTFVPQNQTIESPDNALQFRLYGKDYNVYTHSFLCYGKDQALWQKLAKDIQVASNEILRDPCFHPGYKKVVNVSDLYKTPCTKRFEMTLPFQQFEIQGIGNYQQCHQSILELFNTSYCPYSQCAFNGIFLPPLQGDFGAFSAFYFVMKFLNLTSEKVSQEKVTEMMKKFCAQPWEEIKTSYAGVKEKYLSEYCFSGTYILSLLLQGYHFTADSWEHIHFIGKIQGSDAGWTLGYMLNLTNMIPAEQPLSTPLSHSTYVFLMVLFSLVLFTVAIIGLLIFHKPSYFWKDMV
Assay: flow cytometry on CHO cells expressing human CD39
Experimental: Cells were incubated with various concentration of unlabeled anti-CD39 antibody from 30 μg/ml to 5×10-⁴ μg/ml, for 30 minutes at 4° C. After washes, cells were incubated with Goat anti-mouse H+L labeled secondary antibody for 30 min at 4° C.
Antibodies mAb1-21 were assessed for binding to CD39 by flow cytometry as described in Example 7, using CHO cells expressing human CD39 and CHO cells expressing cynomolgus (Macaca fascicularis) CD39.

B1: mAb20 H4L1 (antibody, human IgG1, kappa, V domains shown)
VH: QVQLVQSGAEVKKPGASVKVSCKASGYTFTDYNMHWVRQAPGQRLEWIGYIVPLNGGSTFNQKFKGRATITVDTSARTAYMELSSLRSEDTAVYYCARGGTRFAYWGQGTLVTVSS
VL: DIVMTQSPDSLAVSLGERATINCRASESVDNFGVSFMYWFQQKPGQPPKLLIYGASNQGSGVPDRFSGSGSGTDFTLTISSLQAEDVAVYYCQQTKEVPYTFGGGTKVEIKR
notes: The full heavy chain carries L234A/L235E/G237A/A330S/P331S
B1: binds.
